Measurements reported in the supplement of paper PMC10567573.

B1: USP39 (parent)
chain: TLSEAYIQIWKRRDNDETNQQGA

Variants of: B1
Experiment: protein stability index of a GFP-peptide fusion (GPS, HEK-293T) (PSI 1-6); higher = more stable
Conditions: c terminus: native
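Note: lentivirally expressed fusions sorted by FACS into six bins by GFP to DsRed ratio, PSI derived from sequencing read proportions per bin multiplied by bin number.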

| Variant | protein stability index |
| --- | --- |
| TKSEAYIQIWKRRDNDETNQQGA [L2K] | 2.74 |
| TPSEAYIQIWKRRDNDETNQQGA [L2P] | 2.6 |
| TCSEAYIQIWKRRDNDETNQQGA [L2C] | 2.32 |
| TWSEAYIQIWKRRDNDETNQQGA [L2W] | 2.63 |
| TNSEAYIQIWKRRDNDETNQQGA [L2N] | 3.33 |
| TRSEAYIQIWKRRDNDETNQQGA [L2R] | 2.85 |
| THSEAYIQIWKRRDNDETNQQGA [L2H] | 3.1 |
| TISEAYIQIWKRRDNDETNQQGA [L2I] | 2.77 |
| TSSEAYIQIWKRRDNDETNQQGA [L2S] | 3.08 |
| TTSEAYIQIWKRRDNDETNQQGA [L2T] | 2.72 |
| TVSEAYIQIWKRRDNDETNQQGA [L2V] | 2.73 |
| TMSEAYIQIWKRRDNDETNQQGA [L2M] | 2.98 |
| TASEAYIQIWKRRDNDETNQQGA [L2A] | 2.8 |
| TLEEAYIQIWKRRDNDETNQQGA [S3E] | 2.95 |
| TLMEAYIQIWKRRDNDETNQQGA [S3M] | 2.01 |
| TLKEAYIQIWKRRDNDETNQQGA [S3K] | 2.68 |
| TLREAYIQIWKRRDNDETNQQGA [S3R] | 2.78 |
| TLVEAYIQIWKRRDNDETNQQGA [S3V] | 1.11 |
| TLIEAYIQIWKRRDNDETNQQGA [S3I] | 2.3 |
| TLTEAYIQIWKRRDNDETNQQGA [S3T] | 2.65 |
| TLDEAYIQIWKRRDNDETNQQGA [S3D] | 3.55 |
| TLCEAYIQIWKRRDNDETNQQGA [S3C] | 2.38 |
| TLAEAYIQIWKRRDNDETNQQGA [S3A] | 3.23 |
| TLLEAYIQIWKRRDNDETNQQGA [S3L] | 3.01 |
| TLGEAYIQIWKRRDNDETNQQGA [S3G] | 2.32 |

| Variant | protein stability index |
| --- | --- |
| TLNEAYIQIWKRRDNDETNQQGA [S3N] | 2.2 |
| TLYEAYIQIWKRRDNDETNQQGA [S3Y] | 1.98 |
| TLPEAYIQIWKRRDNDETNQQGA [S3P] | 3.01 |
| TLQEAYIQIWKRRDNDETNQQGA [S3Q] | 2.38 |
| TLHEAYIQIWKRRDNDETNQQGA [S3H] | 2.5 |
| TLWEAYIQIWKRRDNDETNQQGA [S3W] | 2.32 |
| TLFEAYIQIWKRRDNDETNQQGA [S3F] | 2.14 |
| PLSEAYIQIWKRRDNDETNQQGA [T1P] | 2.54 |
| QLSEAYIQIWKRRDNDETNQQGA [T1Q] | 2.32 |
| ELSEAYIQIWKRRDNDETNQQGA [T1E] | 2.59 |
| MLSEAYIQIWKRRDNDETNQQGA [T1M] | 2.66 |
| ILSEAYIQIWKRRDNDETNQQGA [T1I] | 2.31 |
| KLSEAYIQIWKRRDNDETNQQGA [T1K] | 2.36 |
| CLSEAYIQIWKRRDNDETNQQGA [T1C] | 2.34 |
| NLSEAYIQIWKRRDNDETNQQGA [T1N] | 2.99 |
| DLSEAYIQIWKRRDNDETNQQGA [T1D] | 2.35 |
| HLSEAYIQIWKRRDNDETNQQGA [T1H] | 1.99 |
| ALSEAYIQIWKRRDNDETNQQGA [T1A] | 2.37 |
| VLSEAYIQIWKRRDNDETNQQGA [T1V] | 2.07 |
| SLSEAYIQIWKRRDNDETNQQGA [T1S] | 2.54 |
| FLSEAYIQIWKRRDNDETNQQGA [T1F] | 2.16 |
| RLSEAYIQIWKRRDNDETNQQGA [T1R] | 2.79 |
| GLSEAYIQIWKRRDNDETNQQGA [T1G] | 3.34 |
| YLSEAYIQIWKRRDNDETNQQGA [T1Y] | 1.78 |
